# Test results as given in article PMC4051428 (Organic Letters, 2014).
# T1: ChxH (Streptomyces sp. YIM 56141, UniProt I7D037)
# T1 sequence (I7D037 1-262): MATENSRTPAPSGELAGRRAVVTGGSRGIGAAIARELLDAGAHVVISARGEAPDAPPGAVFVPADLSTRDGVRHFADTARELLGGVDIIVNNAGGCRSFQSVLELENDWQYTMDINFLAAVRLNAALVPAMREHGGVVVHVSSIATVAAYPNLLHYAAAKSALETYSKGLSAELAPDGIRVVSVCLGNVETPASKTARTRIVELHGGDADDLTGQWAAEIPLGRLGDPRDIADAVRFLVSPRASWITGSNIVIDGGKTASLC
# B1: ChxH (Streptomyces sp. YIM 56141) (protein)
# chain: T1 sequence (I7D037 1-262)
# Assays:
# [1] = target: T1, ChxH; assay: steady-state kinetics, initial velocity, Michaelis-Menten; settings: read-out: apparent KM; saturating NADP+; reverse reaction 1 to 10
# [2] = substrate: NC(=O)c1ccc[n+]([C@@H]2O[C@H](COP(=O)(O)OP(=O)(O)OC[C@H]3O[C@@H](n4cnc5c(N)ncnc54)[C@H](O)[C@@H]3O)[C@@H](O)[C@H]2O)c1; assay: purified protein; settings: saturating 1; reverse reaction 1 to 10; varied: cofactor
# [3] = substrate: NC(=O)c1ccc[n+]([C@@H]2O[C@H](COP(=O)(O)OP(=O)(O)OC[C@H]3O[C@@H](n4cnc5c(N)ncnc54)[C@H](OP(=O)(O)O)[C@@H]3O)[C@@H](O)[C@H]2O)c1; assay: purified protein; settings: saturating 1; reverse reaction 1 to 10; varied: cofactor
Molecule,Km [1] [µM],Km [2] [µM],kcat [2] [min^–1],Km [3] [µM],kcat [3] [min^–1]
"C[C@@H]1C[C@@H]([C@H](O)CC2CC(=O)NC(=O)C2)C(=O)[C@@H](C)C1 [compound 1, Cycloheximide]",99 ± 7,–,–,–,–
B1,–,233 ± 37,13 ± 3,76 ± 5,387 ± 23
